Laboratory results published in article doi:10.1101/407197.
Like-named read-outs stand apart in the source and are kept apart here.

Experiments:
[1] = target: T1, MIWI (mouse, UniProt Q9JMB7 1-862); assay: EMSA
[2] = target: T1, MIWI; assay: EMSA; remark: listed apart in the source

T1 sequence (Q9JMB7 whole entry): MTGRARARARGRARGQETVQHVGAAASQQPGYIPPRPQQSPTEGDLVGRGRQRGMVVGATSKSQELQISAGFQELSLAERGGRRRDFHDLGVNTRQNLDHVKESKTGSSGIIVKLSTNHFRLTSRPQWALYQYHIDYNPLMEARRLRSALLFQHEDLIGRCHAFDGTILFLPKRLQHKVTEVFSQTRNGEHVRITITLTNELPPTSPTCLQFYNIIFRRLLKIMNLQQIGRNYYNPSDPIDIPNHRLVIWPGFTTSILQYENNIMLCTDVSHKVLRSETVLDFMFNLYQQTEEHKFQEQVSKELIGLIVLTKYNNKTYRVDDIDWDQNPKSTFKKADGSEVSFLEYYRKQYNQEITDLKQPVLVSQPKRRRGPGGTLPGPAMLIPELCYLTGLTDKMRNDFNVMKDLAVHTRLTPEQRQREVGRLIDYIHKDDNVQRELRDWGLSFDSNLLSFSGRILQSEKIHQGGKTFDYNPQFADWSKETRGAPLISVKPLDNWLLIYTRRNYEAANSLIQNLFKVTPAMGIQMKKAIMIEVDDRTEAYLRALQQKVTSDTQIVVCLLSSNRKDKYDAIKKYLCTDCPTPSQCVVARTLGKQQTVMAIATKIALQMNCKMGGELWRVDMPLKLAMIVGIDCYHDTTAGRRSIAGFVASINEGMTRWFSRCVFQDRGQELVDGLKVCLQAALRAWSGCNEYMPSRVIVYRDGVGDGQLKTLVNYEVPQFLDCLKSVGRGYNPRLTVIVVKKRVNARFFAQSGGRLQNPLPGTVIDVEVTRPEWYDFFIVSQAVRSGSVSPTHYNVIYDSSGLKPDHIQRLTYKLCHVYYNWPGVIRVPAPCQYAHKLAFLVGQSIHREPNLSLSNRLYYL

Row | Binder | binding result [1] | binding result [2]
1 | CCUCAUGAAGAAGAGGAGGAGGA (ssRNA) [Ssty RNA oligonucleotide (putative piRNA)] | binds | 
2 | CAGUUAAAGAAAUGCAUGAGAA (ssRNA) [Sly RNA oligonucleotide (putative piRNA)] | binds | 
3 | UGACAUGAACACAGGUGCUCAGAUAGCUUU (ssRNA) [piR1] |  | binds
